From the RNAGym collection of RNA variant scans (doi:10.7554/elife.80360)

B1: HDV Ribozyme (parent)
chain: GGCCGGCAUGGUCCCAGCCUCCUCGCUGGCGCCGGCUGGGCAACAUUCCGAGGGGACCGUCCCCUCGGUAAUGGCGAAUGGGACCCA

Variants of: B1
Test: self-cleavage, relative activity (ratio to wild type); higher = more cleavage; co-transcriptional

In order of falling self-cleavage:
1. G76U A78G  1.34
2. G76C C85G  1.23
3. G76U A87C  1.17
4. A77G C86A  1.15
5. G76C C85U  1.14
6. G76U A87G  1.13
7. G76C A87U  1.1
8. G76C A87G  1.08
9. G76A A77G  1.04
10. G76A  1.04
11. G76U  1.03
12. G76A A87C  1.03
13. C84A A87U  1.02
14. U79A C86U  1.02
15. G76C A77G  1
16. G76C  1
17. U79A C85G  0.997
18. C86G  0.983
19. G76U A77G  0.978
20. C85U  0.978
21. C86G A87U  0.965
22. A77U C85U  0.96
23. C85U A87U  0.956
24. A83U C86U  0.95
25. C85G  0.948
26. C85U C86G  0.946
27. C86U  0.935
28. C85A  0.932
29. C84G C85A  0.928
30. C86A  0.926
31. C85A C86A  0.924
32. C85U C86A  0.923
33. C86G A87G  0.905
34. A83G C85U  0.9
35. C86A A87U  0.9
36. A77G  0.887
37. A77G C86G  0.886
38. G76C C85A  0.873
39. A83U C84U  0.87
40. A83G A87U  0.861
41. G76A C86A  0.855
42. G76U C86U  0.852
43. A77G C85A  0.851
44. C85G A87C  0.849
45. C86U A87U  0.835
46. A77U C86A  0.831
47. U79A C86G  0.81
48. G76U A83G  0.787
49. A83C C84A  0.78
50. C84U C86A  0.767
51. C85G C86A  0.763
52. G76A A77U  0.76
53. C84A C86G  0.755
54. G76U A83C  0.755
55. U79A A87G  0.752
56. A78G C85U  0.748
57. A83G A87G  0.733
58. A77U C86U  0.729
59. G74A G76U  0.727
60. C84G C85U  0.719
61. U79G C86A  0.675
62. G76A U79G  0.672
63. G76A A77C  0.657
64. A77U A87C  0.655
65. G80U C84A  0.652
66. G74U C86U  0.648
67. C84A C85U  0.639
68. A77U  0.623
69. G76C C84G  0.618
70. G74U C85U  0.614
71. G74A C85G  0.601
72. G80A C84A  0.58
73. A77G C84G  0.573
74. C84A C85A  0.571
75. G81A A87U  0.565
76. A83C C86A  0.554
77. U79G C84U  0.554
78. G74A C86A  0.537
79. C84G C86G  0.522
80. U79C C86A  0.513
81. G74U A87U  0.506
82. A77C C85A  0.506
83. A83C A87C  0.499
84. G82A C85U  0.495
85. A77C C85G  0.492
86. G76U A83U  0.481
87. A77C A87U  0.466
88. A77G C84A  0.464
89. G74A C85U  0.462
90. G82U A87U  0.462
91. G73U C85U  0.458
92. A77U A78G  0.443
93. G82A  0.418
94. G82U  0.41
95. C84G A87C  0.409
96. G80A C85A  0.408
97. A77C C86A  0.407
98. G82U C86G  0.39
99. A77G G82C  0.389
100. G74U C86A  0.389
101. G73U A87C  0.385
102. G81U C84A  0.378
103. A77C  0.377
104. G74A C86G  0.375
105. G73U A87U  0.374
106. A78G G82A  0.365
107. A77C G82A  0.358
108. G81A C85A  0.35
109. G74A A87G  0.339
110. G74C A78U  0.332
111. G74U A78U  0.332
112. G80U G82C  0.332
113. A78G G80C  0.329
114. G81A C84U  0.327
115. A78U C85G  0.326
116. A77C C84U  0.326
117. A78U A83C  0.324
118. A78G U79A  0.317
119. G76A G81C  0.302
120. A77U C85G  0.299
121. U79A G81U  0.295
122. G82U A83U  0.289
123. G80U C85A  0.288
124. G82C C86U  0.285
125. C84G A87G  0.282
126. U79G G80C  0.277
127. G80U G81A  0.277
128. G80U A87G  0.272
129. C75A C84A  0.269
130. U79C G80U  0.267
131. G74A A77U  0.267
132. A77U A83G  0.261
133. G81C C84A  0.26
134. G74U A83U  0.259
135. G82C  0.259
136. C75A U79A  0.256
137. G82A C85A  0.253
138. G80U C86G  0.243
139. A77U A83C  0.231
140. A83C C84G  0.231
141. G74U C75A  0.228
142. G74C G80A  0.227
143. A78C C86U  0.225
144. G73U G74U  0.22
145. G73U A83G  0.219
146. G74U G82A  0.217
147. C75G G82U  0.215
148. A77U G82C  0.208
149. C75A U79G  0.208
150. A77C A78C  0.208
151. U79G A83C  0.204
152. C75A A87C  0.202
153. G74U U79G  0.199
154. A78U G82U  0.197
155. G74C C84U  0.196
156. G80U A87C  0.192
157. A78C C86A  0.192
158. G80U G81U  0.191
159. G81A A83U  0.187
160. G74C A78C  0.185
161. A78U C84A  0.185
162. A78U G81A  0.182
163. C75U G80U  0.178
164. G80C A87U  0.177
165. A78C G80A  0.174
166. A78C G80U  0.174
167. G74A A78U  0.173
168. C75U U79C  0.172
169. G73U U79C  0.169
170. G82C C84U  0.166
171. A78C A83U  0.166
172. G74C G82A  0.166
173. G81A A83C  0.165
174. G80A C84G  0.161
175. C75U G81C  0.16
176. A77U G81C  0.157
177. C75A G81C  0.157
178. C75G C86U  0.156
179. C75A G81U  0.155
180. G81U A83G  0.152
181. U79A A83C  0.151
182. C75U C86G  0.145
183. G74C A77G  0.145
184. G80C C84A  0.144
185. C75U G80C  0.142
186. A78C C86G  0.14
187. G82U A83G  0.137
188. G80A A83C  0.135
189. C75G G81U  0.133
190. G73U U79A  0.131
191. U79C G80A  0.129
192. G80C A83C  0.128
193. G74U C84G  0.126
194. G73U G74C  0.126
195. G74A G82U  0.125
196. G74U A77C  0.123
197. A78G G81A  0.115
198. C75G U79C  0.113
199. G73U C75U  0.111
200. C75U G82C  0.108
201. G73U C75A  0.107
202. G81C G82C  0.106
203. C75A A78C  0.104
204. G74U G80U  0.0956
205. A78U U79A  0.095
206. C75A A78G  0.0898
207. G80C G81A  0.089
208. G76C G81C  0.0875
209. C75A A77G  0.0875
210. G74A U79A  0.0852
211. A78C C85G  0.0852
212. A78C G82C  0.0831
213. G74C C85G  0.0791
214. C75U C84U  0.0767
215. C75G G80C  0.0709
216. C75A C86U  0.0615
217. C75A C84U  0.0545
218. A78C G80C  0.0514
219. G80A G82U  0.0511
220. U79A G81C  0.0504
221. A77C G81C  0.0504
222. G74C G82C  0.0475
223. A77G G80C  0.0437
224. A78U C84G  0.0396
225. G74C C75G  0.0386
226. C75G G81A  0.0332
227. A78U G82C  0.0302
228. C75G C86G  0
229. C75U A78C  0
